Primed or numbered codes have the meaning given here. The star is where a group is joined. Dabcyl′ = CN(C)c1ccc(/N=N/c2ccc(C(=O)*)cc2)cc1; EDANS = O=S(=O)(O)c1cccc2c(NCCN*)cccc12
Target: T1, Group B Streptococcus recombinant sortase A SrtA_(ΔN40) (Streptococcus agalactiae strain 515 (serotype Ia)) (UniProt Q8DZY1)
T1 sequence: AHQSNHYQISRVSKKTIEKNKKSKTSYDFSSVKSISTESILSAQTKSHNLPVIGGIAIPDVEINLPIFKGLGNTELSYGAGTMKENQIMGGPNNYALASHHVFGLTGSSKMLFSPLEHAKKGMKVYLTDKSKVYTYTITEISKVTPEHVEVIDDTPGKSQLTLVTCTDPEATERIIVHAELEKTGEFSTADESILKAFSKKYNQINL

B1: AP2-2a peptide (Dabcyl-SFLPKTGM-Edans) (peptide)
peptide: {Dabcyl′}-SFLPKTGM-{EDANS}
SMILES: CSCC[C@H](NC(=O)CNC(=O)[C@@H](NC(=O)[C@H](CCCCN)NC(=O)[C@@H]1CCCN1C(=O)[C@H](CC(C)C)NC(=O)[C@H](Cc1ccccc1)NC(=O)[C@H](CO)NC(=O)c1ccc(/N=N/c2ccc(N(C)C)cc2)cc1)[C@@H](C)O)C(=O)NCCNc1cccc2c(S(=O)(=O)O)cccc12
B1 was tested, and the apparent Michaelis constant K (m,app) of the transpeptidation reaction (FRET assay, 1-384 µM peptide, 3 µM SrtA (ΔN40), 75 mM triglycine, 37°C, 20 mM HEPES pH 7.5) was 48.4 µM.
